# T1: iASPP CTD WT (C-terminal domain, AA625-828) (human, UniProt Q8WUF5 625-828)
# T1 construct: iASPP (encoded by PPP1R13L), C-terminal domain with four ankyrin repeats and an SH3 domain, AA625-828 (CTD starting from L625); also called iASPP WT CTD; source: E. coli BL21(DE3) Rosetta, purified (IMAC, TEV cleavage, reverse Ni, HiTrap Q, Superdex 75 SEC); not shown: His10, N-terminal, cleaved
# T1 sequence (looked up): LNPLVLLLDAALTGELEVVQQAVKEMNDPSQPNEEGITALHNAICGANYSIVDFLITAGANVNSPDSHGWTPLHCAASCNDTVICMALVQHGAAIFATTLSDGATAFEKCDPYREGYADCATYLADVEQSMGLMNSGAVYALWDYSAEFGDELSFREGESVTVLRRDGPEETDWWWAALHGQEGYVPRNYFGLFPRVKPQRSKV
# B1: PP1α (AA311-330) peptide (peptide, UniProt P62136 311-330, looked up)
# peptide: GLNPGGRPITPPRNSAKAKK
# notes: PP1α (protein phosphatase 1 catalytic subunit alpha), peptide AA311-330; also called PP1α peptide
# Key:
# [1] = target: iASPP CTD N813A Y814A double mutant (human) (UniProt Q8WUF5); assay: ITC; VP-ITC, 12 °C, 25 steps of 10 µl; 450 µM iASPP CT peptides titrated to 30 µM purified ASPP CTDs; 25 mM HEPES pH 7.5, 150 mM NaCl, 500 µM TCEP
# [2] = target: iASPP CTD WT (C-terminal domain, AA625-828) (human) (UniProt Q8WUF5); assay: as above
# [3] = target: T1, iASPP CTD WT (C-terminal domain, …); assay: thermal shift assay; 20 µM CTD with SYPRO Orange and 20 or 40 µM PP1α (AA311-330) peptide in assay buffer; 4 to 99 °C at 0.1 °C/s; conditions: both partners purified
Molecule,Kd [1],Kd [2],increase of the melting temperature with peptide [3]
iASPP WT peptide spanning the sequence around A620,5 µM,0.743 µM,–
iASPP A620P peptide spanning the sequence around the mutation,5 µM,0.135 µM,–
B1,–,–,10 °C
